The record followed here is patent US20240342199.

For data set [1], the target named is Recombinant GST-CypD (wild type), P30405.
The target of data set [2] is Recombinant CypD Ser31→Ala mutant, P30405.
In data set [3] the target is Recombinant CypD Ser123→Ala mutant, P30405.
Data set [4] addresses Recombinant CypD Ser31/Ser123→Ala double mutant, P30405.

Sequence of Recombinant CypD Ser31/Ser123→Ala double mutant, P30405 (P30405 whole entry, looked up, change not shown): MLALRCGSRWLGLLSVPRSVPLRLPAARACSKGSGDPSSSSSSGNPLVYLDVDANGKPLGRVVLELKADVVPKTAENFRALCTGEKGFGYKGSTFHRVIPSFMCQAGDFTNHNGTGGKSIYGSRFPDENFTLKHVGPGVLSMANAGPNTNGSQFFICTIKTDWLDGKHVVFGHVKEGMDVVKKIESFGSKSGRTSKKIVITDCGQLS
Sequence of Recombinant GST-CypD (wild type), P30405 (P30405 whole entry): as the sequence (P30405 whole entry, looked up, change not shown) above
Sequence of Recombinant CypD Ser123→Ala mutant, P30405 (P30405 whole entry, looked up, change not shown): as above
Sequence of Recombinant CypD Ser31→Ala mutant, P30405 (P30405 whole entry, looked up, change not shown): as above

B1: active Akt2 (protein)
chain: MNEVSVIKEGWLHKRGEYIKTWRPRYFLLKSDGSFIGYKERPEAPDQTLPPLNNFSVAECQLMKTERPRPNTFVIRCLQWTTVIERTFHVDSPDEREEWMRAIQMVANSLKQRAPGEDPMDYKCGSPSDSSTTEEMEVAVSKARAKVTMNDFDYLKLLGKGTFGKVILVREKATGRYYAMKILRKEVIIAKDEVAHTVTESRVLQNTRHPFLTALKYAFQTHDRLCFVMEYANGGELFFHLSRERVFTEERARFYGAEIVSALEYLHSRDVVYRDIKLENLMLDKDGHIKITDFGLCKEGISDGATMKTFCGTPEYLAPEVLEDNDYGRAVDWWGLGVVMYEMMCGRLPFYNQDHERLFELILMEEIRFPRTLSPEAKSLLAGLLKKDPKQRLGGGPSDAKEVMEHRFFLSINWQDVVQKKLLPPFKPQVTSEVDTRYFDDEFTAQSITITPPDRYDSLGLLELDQRTHFPQFSYSASIRE
Regarding B1, the “kinase assay with recombinant proteins, 32P-ATP, autoradiography” value is “readily phosphorylated” in data set [1], “abolished Akt phosphorylation of CypD” in data set [2], “readily phosphorylated” in data set [3] and “abolished Akt phosphorylation of CypD” in data set [4].
